Experiments:
SEC = target: the molecule itself; assay: SEC
[1] = target: full-length CD146, wild type, with a FLAG tag or a Myc tag (human, UniProt P43121); assay: co-IP
Chain of full-length CD146, wild type, with a FLAG tag or a Myc tag (P43121 24-646): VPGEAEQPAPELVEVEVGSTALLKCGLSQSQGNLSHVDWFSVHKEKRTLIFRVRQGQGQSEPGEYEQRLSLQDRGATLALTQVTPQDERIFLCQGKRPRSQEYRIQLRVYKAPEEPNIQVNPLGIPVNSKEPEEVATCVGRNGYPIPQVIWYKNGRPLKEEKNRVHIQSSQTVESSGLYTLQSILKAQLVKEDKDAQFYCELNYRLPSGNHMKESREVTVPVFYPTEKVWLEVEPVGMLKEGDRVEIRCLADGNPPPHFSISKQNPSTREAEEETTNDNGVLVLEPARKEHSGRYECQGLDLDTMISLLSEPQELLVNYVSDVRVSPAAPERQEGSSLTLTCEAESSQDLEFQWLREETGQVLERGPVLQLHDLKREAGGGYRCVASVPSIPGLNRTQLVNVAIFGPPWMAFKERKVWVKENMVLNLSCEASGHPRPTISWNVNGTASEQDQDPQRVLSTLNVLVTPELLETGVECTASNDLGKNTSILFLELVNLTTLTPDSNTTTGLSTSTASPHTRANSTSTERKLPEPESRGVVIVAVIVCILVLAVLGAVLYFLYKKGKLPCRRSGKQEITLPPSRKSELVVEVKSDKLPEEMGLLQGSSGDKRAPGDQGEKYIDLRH

Row | binding result [1] | Binder | stoichiometry N (SEC)
1 | – | human CD146 fragment containing domain 4 and domain 5 (D4-D5, Gln336 to Leu519) (domain or fragment, UniProt P43121 336-519, looked up, two N-glycosylation sites on D4 and D5 seen in the electron density map) QELLVNYVSDVRVSPAAPERQEGSSLTLTCEAESSQDLEFQWLREETGQVLERGPVLQLHDLKREAGGGYRCVASVPSIPGLNRTQLVNVAIFGPPWMAFKERKVWVKENMVLNLSCEASGHPRPTISWNVNGTASEQDQDPQRVLSTLNVLVTPELLETGVECTASNDLGKNTSILFLELVNL | 2
2 | binds | HA98 (AA98 mAb mutant H13–112: heavy chain (I28K)/light chain (L51Y)) (antibody, V domains shown) VH: EVQLLESGAELVRPGASVKLSCKTSGYKFTNYWIHWVKQRSGQGLEWIARIYPGTDITYYNEKFKGKATLTVDKSSSSAYMLLSSLKSEDSSVYFCARSGGYWYFDVWGAGTTVTVSS VL: ELVMTQSPASLAVSLGQRATISCRASKSVSISGYSYMHWYQQKPGQPPKLYIYLASNLESGVPARFSGSGSGTDFTLNIHPVEEEDAATYYCQHSRELPYTFGGGTKLEIK | –
